Measured values published in patent publication US20160297881A1 (ENGMAB, published 2016).
Several values for one entry are separate records, joined by “and”; a condition that tells them apart may be missing. Identical values can stand only once.

How the values were obtained:
human ROR1 = biological target: T1, human ROR1 (human, UniProt Q01973 30-937); experiment: flow cytometry on ROR1-positive RPMI8226 cells
T1 construct: whole, on cells; Endogenous ROR1 on ROR1-positive cells; also called tyrosine-protein kinase transmembrane receptor ROR1; neurotrophic tyrosine kinase, receptor-related 1
T1 sequence (Q01973 30-937): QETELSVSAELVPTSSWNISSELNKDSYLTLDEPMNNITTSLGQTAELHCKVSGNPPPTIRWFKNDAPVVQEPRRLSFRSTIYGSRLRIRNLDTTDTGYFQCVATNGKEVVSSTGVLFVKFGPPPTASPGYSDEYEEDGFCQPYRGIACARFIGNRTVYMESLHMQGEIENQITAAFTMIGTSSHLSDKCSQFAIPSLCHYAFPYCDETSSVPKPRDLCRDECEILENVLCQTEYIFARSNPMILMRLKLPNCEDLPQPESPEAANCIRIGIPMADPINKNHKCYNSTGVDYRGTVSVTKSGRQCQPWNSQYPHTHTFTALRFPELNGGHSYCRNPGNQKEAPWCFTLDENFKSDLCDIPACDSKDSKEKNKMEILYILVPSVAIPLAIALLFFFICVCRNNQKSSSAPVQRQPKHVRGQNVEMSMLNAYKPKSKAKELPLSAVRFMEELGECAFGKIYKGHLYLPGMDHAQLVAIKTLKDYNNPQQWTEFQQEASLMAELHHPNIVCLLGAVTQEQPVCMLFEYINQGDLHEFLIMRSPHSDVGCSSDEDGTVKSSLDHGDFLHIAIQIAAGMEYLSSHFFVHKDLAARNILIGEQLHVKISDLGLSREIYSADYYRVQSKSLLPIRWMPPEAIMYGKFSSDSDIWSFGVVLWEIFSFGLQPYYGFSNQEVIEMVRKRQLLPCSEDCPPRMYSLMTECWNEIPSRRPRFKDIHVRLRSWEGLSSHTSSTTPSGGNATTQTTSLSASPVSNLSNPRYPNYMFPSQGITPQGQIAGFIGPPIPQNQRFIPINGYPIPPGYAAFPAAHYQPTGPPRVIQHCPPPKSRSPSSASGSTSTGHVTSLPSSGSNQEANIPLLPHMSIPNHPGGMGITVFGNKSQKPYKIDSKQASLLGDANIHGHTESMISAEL
Method: a) Anti-ROR1 antibodies coming either from the immunization approach and/or from the screening of the recombinant in vitro library described above are analyzed by flow cytometry for binding to human ROR1 on HEK293-ROR1 cells. Briefly, cultured cells are harvested, counted and cell viability is evaluated using the Trypan Blue exclusion method. Viable cells are then adjusted to 2×10⁶ cells per ml in BSA-containing FACS Stain Buffer (BD Biosciences). 90 μl of this cell suspension are further aliquoted per well into a round-bottom 96-well plate. 10 μl of the anti-ROR1 antibodies or corresponding IgG control are added to the cell-containing wells to obtain final concentrations of 0.1 pM to 200 nM. All constructs and control IgG are used at the same molarity. […] The samples are resuspended in 200 μl/well FACS Stain Buffer and acquired and analyzed using an LSR II flow cytometer with FACSDiva® software (BD Biosciences). The mean fluorescence intensity (MFI) is plotted as a function of anti-ROR1 antibody concentration to obtain the binding curve and to calculate the effective antibody concentration to reach 50% of maximal binding (EC₅₀). […]
c) ROR1 expression was then assessed on B lymphocyte myeloma RPMI8226 cell lines by flow cytometry, using the methods described above.

human CD3ε = biological target: T2, human CD3ε (human, UniProt P07766 23-207); experiment: flow cytometry on Jurkat T cells expressing human CD3
T2 construct: whole, on cells; On Jurkat cells as part of the TCR/CD3 complex; also called CD3 epsilon
T2 sequence (P07766 23-207): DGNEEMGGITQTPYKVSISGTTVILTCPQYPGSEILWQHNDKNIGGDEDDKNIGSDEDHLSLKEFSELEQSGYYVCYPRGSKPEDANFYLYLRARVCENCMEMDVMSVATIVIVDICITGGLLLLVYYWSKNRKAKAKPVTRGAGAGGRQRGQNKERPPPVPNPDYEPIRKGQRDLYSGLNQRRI
Method: a) Anti-ROR1/anti-CD3 T cell bispecific antibodies generated in Example 3 were also analyzed by flow cytometry for their binding properties to human ROR1 expressed on primary B-CLL cells or human CD3 expressed on human leukemic T cells Jurkat (ATCC TIB-152). Jurkat T cells were cultured in RPMI supplemented with 10% fetal calf serum. Briefly, cultured cells were harvested, counted and cell viability was evaluated using ViCell. Viable cells were then adjusted to 2×10⁶ cells per ml in FACS Stain Buffer (BD Biosciences) containing 0.1% BSA. 100 μl of this cell suspension were further aliquoted per well into a round-bottom 96-well plate. […] After incubation for 30 min at 4° C., cells were centrifuged (5 min, 350×g), washed twice with 150 μl/well BSA-containing FACS Stain Buffer (BD Biosciences), then cells were fixed using 100 ul BD Fixation buffer per well (#BD Biosciences, 554655) at 4° C. for 20 min, resuspended in 120 μl FACS buffer and analyzed using BD FACS CantoII. Binding of the anti-ROR1/anti-CD3 T cell bispecific antibodies to B-CLL cells and T cells were evaluated and the mean fluorescence intensity was determined gated on either ROR1-expressing B-CLL cells or CD3-expressing Jurkat T cells and plotted in histograms or dot plots. […]

EC50 (human ROR1): 0.087 nM and 0.013 µg/mL
binding result (human CD3ε): no binding (tested: 3 nM to 500 nM)
B1: anti-ROR1 IgG1 antibody (antibody, V domains shown)
VH: QEQLVESGGRLVTPGGSLTLSCKASGFDFSAYYMSWVRQAPGKGLEWIATIYPSSGKTYYATWVNGRFTISSDNAQNTVDLQMNSLTAADRATYFCARDSYADDGALFNIWGPGTLVTISS
VL: ELVLTQSPSVSAALGSPAKITCTLSSAHKTDTIDWYQQLQGEAPRYLMQVQSDGSYTKRPGVPDRFSGSSSGADRYLIIPSVQADDEADYYCGADYIGGYVFGGGTQLTVLG
notes: Bivalent human IgG1 kappa; Alexa488-labelled in some assays; also called anti-ROR1 antibody; anti-ROR1 IgG antibody
